Measurements as given in patent US20220169693A1, “Screening Assays, Modulators and Modulation of Intracellular Signalling Mediated by Immunoglobulin Superfamily Cell Adhesion Molecules” (Monash University, priority 2018, published 2022).

Legend:
[1] = biological target: T1, full length RAGE1-404 transactivated by C5a receptor 1 (Homo sapiens, UniProt Q15109); test: C5a-induced ICAM-1 expression in ARPE cells transfected with C5aR1 and full length RAGE; type: cell-based; conditions: C5a 1 μM, co-expression (FIG. 6B)
T1 construct: expressed in transfected cells; host or cells: human ARPE (adult retinal pigment epithelial) cells

[2] = biological target: full length RAGE1-404 (Homo sapiens, UniProt Q15109); test: S100A8/A9-induced PCNA expression in CHO cells transfected with full length RAGE; type: cell-based; design: expressed in transfected cells; host or cells: CHO cells; conditions: S100A8/A9 1 μM 2 h, co-transfection (FIG. 4B)
[3] = tested on: full length chicken EpCAM; test: Ang II-induced p65 expression in AT1R-CHO cells transfected with full length chicken EpCAM; type: cell-based; conditions: Ang II 1 μM, co-transfection (FIG. 3D)
Method: (§1) Adult retinal pigment epithelial (ARPE) cells were cultured in Dulbecco's modified Eagle's medium (DMEM)/F12 endothelial cell growth supplement (ECGS) supplemented media. Chinese Hamster Ovary (CHO) cells were cultured using F12 media (10% FCS with 2 mM glutamine). Human microvascular endothelial cells (HMEC) were cultured in MCDB 131 medium (10% FCS with 10 mM glutamine, EGF and hydrocortisone).
(§2) 100 ng of AT1R-Rluc8 construct was transfected into CHO cells using Lipofectamine 2000 (Thermo). Stable transfectants were selected using G418. AT1R-CHO were then transiently transfected with the IgSF CAM and/or RAGE constructs using Lipofectamine 2000 (Invitrogen) and incubated for 16h.
(§3) After 2 hours of exposure to Ang II (1 μM) cells were placed in Trizol, mRNA extracted and cDNA synthesized. Changes in the gene expression of the NFκB subunit, p65 (RelA) or NFκB-activated target genes (e.g ICAM-1) were estimated by quantitative real-time RT-PCR, performed using the TaqMan system based on real-time detection of accumulated fluorescence (ABI Prism 7700, Perkin-Elmer Inc, PE Biosystems, Foster City, Calif., USA). Gene expression was normalized to 18S mRNA and reported as fold change compared to the level of expression in untreated control mice/cells, which were given an arbitrary value of 1.

[4] = tested on: AT1R-CHO cells; test: p65 expression in AT1R-CHO cells expressing the truncated construct alone; type: cell-based, Chinese Hamster; conditions: AT1R-CHO cells, Ang II 1 μM (FIG. 3A, 5A, 5B)
Method: as §1, §2
Oligonucleotides were designed and ordered to generate the ALCAM, BCAM and MCAM intracellular (cytosolic) domains. These included a 5′ NheI site, Kozak sequence and initiating Methionine and then DNA sequences corresponding to ALCAM residues 552-583, BCAM residues 569-628 and MCAM residues 584-637 respectively (Note that as residue 551 of ALCAM is Methionine, the cytosolic tail of ALCAM effectively corresponded to residues 551-583). The pCIneo parental vector was digested with NheI and NotI restriction enzymes, and the DNA of the fragments of the ALCAM, BCAM and MCAM tails/cytosolic domains were ligated into the digested plasmid. After transformation and recovery, colonies were screened and individual clones sequenced. The sequence of the insert was confirmed by DNA sequencing (Micromon, Monash University). A full-length clone of Mouse ALCAM (BC027280) was purchased from Origene. The untagged clone was supplied in the vector pCMV6. Overlapping DNA sequences were ordered to generate the ALCAM559-580 fragment oligonucleotide. These included a 5′ NheI site, Kozak sequence and initiating Methionine and then DNA sequences corresponding to ALCAM residues 559-580. The pCIneo parental vector was digested with NheI and NotI restriction enzymes, and the ALCAM559-580 construct DNA was ligated into the digested plasmid. After transformation and recovery, colonies were screened and individual clones sequenced.
as §3

[5] = biological target: T2, cytosolic tail of human EpCAM, EpCAM289-314 (Homo sapiens, UniProt P16422); test: Ang II-induced p65 expression in AT1R-CHO cells transfected with cytosolic tail of EpCAM; type: cell-based; conditions: Ang II 1 μM, co-transfection (FIG. 3J)
T2 construct: corresponds to residues 289-314 of EpCAM plus an initiating Methionine; initiating Methionine (N); expressed in transfected cells; host or cells: AT1R-CHO (CHO stably transfected with human AT1R-Rluc8), transient transfection
T2 sequence (P16422 with tags, fused parts or gaps limits assumed): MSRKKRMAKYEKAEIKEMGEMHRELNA
Method: as §1, §2, §3

[6] = biological target: T3, cytosolic tail of BCAM, BCAM569-628 (Homo sapiens, UniProt P50895); test: Ang II-induced p65 expression in AT1R-CHO cells transfected with cytosolic tail of BCAM; type: cell-based; design: corresponds to residues 569-628 of BCAM plus an initiating Methionine; initiating Methionine (N); expressed in transfected cells; host or cells: AT1R-CHO (CHO stably transfected with human AT1R-Rluc8); insert in pCIneo; conditions: Ang II 1 μM, co-transfection (FIG. 3H)
T3 sequence (P50895 with tags, fused parts or gaps): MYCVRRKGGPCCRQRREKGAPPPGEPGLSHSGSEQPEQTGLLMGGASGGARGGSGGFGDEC
Method: as §1, §2
Oligonucleotides were designed and ordered to generate the ALCAM, BCAM and MCAM intracellular (cytosolic) domains. […]
as §3, with “Gene expression was normalized to 18S mRNA and reported as fold change compared to the level of expression in untreated control mice/cells, which were given an arbitrary value of 1.” left out

full length chicken EpCAM, sequence (as listed by the source): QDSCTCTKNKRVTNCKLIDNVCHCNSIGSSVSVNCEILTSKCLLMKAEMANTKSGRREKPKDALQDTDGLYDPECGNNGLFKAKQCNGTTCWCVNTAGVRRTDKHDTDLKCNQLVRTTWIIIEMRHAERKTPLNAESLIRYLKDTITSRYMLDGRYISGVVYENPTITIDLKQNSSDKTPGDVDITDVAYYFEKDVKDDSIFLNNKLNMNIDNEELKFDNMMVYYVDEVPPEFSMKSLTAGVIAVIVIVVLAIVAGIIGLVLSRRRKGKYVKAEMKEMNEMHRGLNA
T1 sequence (Q15109 23-404): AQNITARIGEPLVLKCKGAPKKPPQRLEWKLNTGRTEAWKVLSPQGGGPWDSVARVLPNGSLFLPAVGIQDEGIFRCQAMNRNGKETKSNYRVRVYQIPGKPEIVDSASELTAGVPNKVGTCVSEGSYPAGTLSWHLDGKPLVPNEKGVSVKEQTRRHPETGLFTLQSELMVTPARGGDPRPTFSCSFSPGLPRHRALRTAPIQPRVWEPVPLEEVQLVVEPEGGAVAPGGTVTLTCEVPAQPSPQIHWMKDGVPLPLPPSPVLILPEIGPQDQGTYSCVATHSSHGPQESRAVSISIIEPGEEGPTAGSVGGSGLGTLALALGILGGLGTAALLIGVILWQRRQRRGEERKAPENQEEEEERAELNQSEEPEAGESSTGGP
full length RAGE1-404, sequence (Q15109 23-404): as above

Sequence: MKHVNKDLGNMEENKKLEENNHK [ALCAM559-580]
- RAGE-dependent induction of ICAM-1 expression following transactivation of RAGE by C5a receptor 1 [1]: inhibits
- ligand-dependent signalling (PCNA expression) via full length RAGE activated by S100A8/A9 [2]: inhibited
- induction of p65-NFκB expression by Ang II via transactivation of full length chicken EpCAM [3]: prevents induction
- induction of p65 expression by Ang II when the construct alone is expressed [4]: failed to increase the expression of p65
- induction of p65-NFκB expression by Ang II via transactivation of EpCAM289-314 [5]: prevents induction
- induction of p65-NFκB expression by Ang II via transactivation of BCAM569-628 [6]: prevents induction
